The test has as its target CAR (CXADR Fc chimera full-length extracellular D1D2 domain) (UniProt P78310). The test is described as follows: SPR; Biacore T-200; CAR-Fc amine-coupled to a CM5 chip (~1,500 response units); analytes in twofold dilutions 2000 to 7.81125 nM, injected 120 s at 30 uL/min; 25°C; 10 mM phosphate buffer pH 7.4, 140 mM NaCl, 0.27 mM KCl, 0.05% Tween20; regeneration with 10 mM glycine pH 1.5; three independent experiments. Background: In SPR one partner is held on a chip, and binding of the other changes the refractive index at the surface.

Experimental findings from PMC10617564, “Efficient clathrin-mediated entry of enteric adenoviruses in human duodenal cells” (Journal of Virology, 2023) are described below.

Sequence of CAR (CXADR Fc chimera full-length extracellular D1D2 domain) (P78310 20-237, change not shown): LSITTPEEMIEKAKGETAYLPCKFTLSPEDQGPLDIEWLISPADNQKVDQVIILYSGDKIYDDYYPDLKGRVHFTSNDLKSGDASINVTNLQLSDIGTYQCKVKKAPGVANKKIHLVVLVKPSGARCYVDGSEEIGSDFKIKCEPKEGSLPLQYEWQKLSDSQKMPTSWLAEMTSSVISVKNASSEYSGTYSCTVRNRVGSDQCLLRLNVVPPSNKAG
Sequence of HAdV-F40 long fiber knob (domain or fragment) (P18047 348-547 limits assumed): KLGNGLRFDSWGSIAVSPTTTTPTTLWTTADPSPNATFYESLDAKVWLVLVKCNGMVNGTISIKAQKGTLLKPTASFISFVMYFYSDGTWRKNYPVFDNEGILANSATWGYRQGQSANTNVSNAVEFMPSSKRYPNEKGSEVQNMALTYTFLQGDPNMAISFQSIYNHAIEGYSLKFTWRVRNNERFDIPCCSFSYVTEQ
Sequence of HAdV-F41 long fiber knob (domain or fragment) (P14267 363-562 limits assumed): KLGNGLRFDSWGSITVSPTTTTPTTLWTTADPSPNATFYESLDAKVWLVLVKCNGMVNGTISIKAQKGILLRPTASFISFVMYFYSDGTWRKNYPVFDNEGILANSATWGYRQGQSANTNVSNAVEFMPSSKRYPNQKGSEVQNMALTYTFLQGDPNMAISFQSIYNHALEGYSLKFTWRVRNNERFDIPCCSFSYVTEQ

Consider “HAdV-F41 long fiber knob (domain or fragment)”, for which the Kd was found to be 6.34 nM. As to “HAdV-F40 long fiber knob (domain or fragment)”, the dissociation constant (Kd) is 25.5 nM.

By Kd is commonly meant a measure of binding affinity in units of concentration. A lower Kd goes with tighter binding.
